How the values were obtained:
[1] = tested on: chloroplasts of the maize protoplast; experiment: Maize protoplast transient assay, microscopy of TraP12-YFP; assay type: cell-based, Zea mays var. B104; settings: maize protoplasts, 12 hours after transfection
Excerpt: The Trap12 chimeric chloroplast transit peptide-encoding polynucleotide sequence (SEQ ID NO:5) and the linker sequence (SEQ ID NO:10) were cloned upstream of the yellow fluorescent protein gene and incorporated into construct for testing via the maize protoplast transient in planta assay. The resulting construct contained the following plant transcription unit (PTU). The first PTU was comprised of the Zea mays Ubiquitin 1 promoter (ZmUbi1 promoter; Christensen, A., Sharrock R., and Quail P., (1992) Maize polyubiquitin genes: structure, thermal perturbation of expression and transcript splicing, and promoter activity following transfer to protoplasts by electroporation, Plant Molecular Biology, 18:675-689), Trap yellow fluorescent protein fusion gene (TraP12-YFP; US Patent App. 2007/0298412), and Zea mays Peroxidase 5 3′ untranslated region (ZmPer5 3′UTR; U.S. Pat. No. 6,384,207). The construct was confirmed via restriction enzyme digestion and sequencing.
Seed of Zea mays var. B104 were surface sterilized by shaking vigorously in 50% Clorox (3% sodium hypochlorite), containing 2-3 drops of Tween 20, for about 20 minutes. […]
Transfection of 100 to 500 μl of protoplasts (1-5×10^5) was completed by adding the protoplasts to a 2 ml microfuge tube containing about 40 μg of plasmid DNA (pDAB106597), at room temperature. […] Fluorescence of YFP was viewed by microscopy after 12 hours of incubation. […]

[2] = tested on: chloroplasts of the tobacco leaf tissue; experiment: Tobacco transient assay, confocal microscopy of TraP-YFP; assay type: cell-based, Nicotiana benthamiana; settings: Agrobacterium-infiltrated tobacco leaves
Excerpt: The Trap12 and TraP13 chimeric chloroplast transit peptide sequences were initially tested via a transient in planta assay. Polynucleotide sequences which encode the Trap12 (SEQ ID NO:5) and TraP13 (SEQ ID NO:7) chimeric chloroplast transit peptide sequences were synthesized. A linker sequence (SEQ ID NO:10) was incorporated between the TraP sequence and the yfp coding sequence. The resulting constructs contained two plant transcription units (PTU). The first PTU was comprised of the Arabidopsis thaliana Ubiquitin 10 promoter (AtUbi10 promoter; Callis, et al., (1990) J. Biol. Chem., 265: 12486-12493), Trap yellow fluorescent protein fusion gene (TraP-YFP; US Patent App. 2007/0298412), and Agrobacterium tumefaciens ORF 23 3′ untranslated region (AtuORF23 3′UTR; U.S. Pat. No. 5,428,147). […]
Agrobacterium-infiltrated tobacco leaves were severed from the plant, and placed into a petri-dish with water to prevent dehydration. The infiltrated tobacco leaves were observed under blue light excitation with long-pass filter glasses held in place using a Dark Reader Hand Lamp™ (Clare Chemical Research Co.; Dolores, Colo.) to identify undamaged areas of the leaf that were successfully expressing the YFP reporter proteins. […]

[3] = tested on: Cry1Ac, Cry1Ca, Cry1F proteins; experiment: Protein expression of stacked TraP12 cry1Ac, cry1Ca, cry1F in Arabidopsis (Western blotting, ELISA); set-up: species or system Arabidopsis thaliana
Excerpt: The TraP12 chimeric transit peptide was fused to the 5′ end of cry1Ac, cry1Ca, and cry1F gene sequences which were stacked in multi PTU plasmid constructs to determine whether the TraP12 chimeric transit peptide enhanced or reduced expression of the proteins within Arabidopsis.
The constructs listed in Table 35 were assembled using art recognized methods. The constructs were subsequently transformed into Arabidopsis thaliana using the Agrobacterium mediated transformation protocol previously described. Transgenic Arabidopsis plants were obtained and protein expression was determined via Western blotting and ELISA assays.

B1: TraP12: chimeric chloroplast transit peptide SEQ ID NO:6, N-terminus from Brassica napus, C-terminus from Arabidopsis thaliana EPSPS (protein)
chain: MAQSSRICHGVQNPCVIISNLSKSNQNKSPFSVSLKTHQHPRAYPISSSWGLKKSGMTLIGSELRPLKVMSSVS
modifications: TraP12 chloroplast transit peptide
localization of YFP fluorescent protein (microscopy imaging) [1]: accumulated within the chloroplasts | localization of YFP fluorescence signal (microscopy imaging) [2]: accumulated within the chloroplasts | translocation of expressed proteins (Western blots) [3]: directed the expressed proteins into the chloroplasts
